Data taken from patent publication US20090324601A1 (published 2009).

Columns and labels:
[1] = biological target: T1, PDGFR-alpha on MG-63 cells (human, UniProt P16234 24-1089); assay: cell-based or functional assay
[2] = biological target: T1, PDGFR-alpha on MG-63 cells; assay: cell-based or functional assay; remark: listed apart in the source
c-kit = c-kit (UniProt P10721 26-520, limits assumed); assay: method not described
CSF-1R = CSF-1R (UniProt P07333 20-512, limits assumed); assay: method not described
PDGFR-beta = PDGFR-beta (UniProt P09619 33-530, limits assumed); assay: method not described
FLT3 = FLT3 (UniProt P36888 27-541, limits assumed); assay: method not described
[3] = biological target: T2, murine PDGFRa on NIH3T3 cells (murine, UniProt P26618 25-1089); assay: FACS on NIH3T3 cells, goat anti-human IgG Cy5
T2 construct: whole, on cells; also called mouse PDGFR-alpha

[4] = biological target: PDGFR-alpha on human osteosarcoma MG-63 cells (human, UniProt P16234 24-1089); assay: cell-based or functional assay
Chain of PDGFR-alpha on human osteosarcoma MG-63 cells (P16234 24-1089): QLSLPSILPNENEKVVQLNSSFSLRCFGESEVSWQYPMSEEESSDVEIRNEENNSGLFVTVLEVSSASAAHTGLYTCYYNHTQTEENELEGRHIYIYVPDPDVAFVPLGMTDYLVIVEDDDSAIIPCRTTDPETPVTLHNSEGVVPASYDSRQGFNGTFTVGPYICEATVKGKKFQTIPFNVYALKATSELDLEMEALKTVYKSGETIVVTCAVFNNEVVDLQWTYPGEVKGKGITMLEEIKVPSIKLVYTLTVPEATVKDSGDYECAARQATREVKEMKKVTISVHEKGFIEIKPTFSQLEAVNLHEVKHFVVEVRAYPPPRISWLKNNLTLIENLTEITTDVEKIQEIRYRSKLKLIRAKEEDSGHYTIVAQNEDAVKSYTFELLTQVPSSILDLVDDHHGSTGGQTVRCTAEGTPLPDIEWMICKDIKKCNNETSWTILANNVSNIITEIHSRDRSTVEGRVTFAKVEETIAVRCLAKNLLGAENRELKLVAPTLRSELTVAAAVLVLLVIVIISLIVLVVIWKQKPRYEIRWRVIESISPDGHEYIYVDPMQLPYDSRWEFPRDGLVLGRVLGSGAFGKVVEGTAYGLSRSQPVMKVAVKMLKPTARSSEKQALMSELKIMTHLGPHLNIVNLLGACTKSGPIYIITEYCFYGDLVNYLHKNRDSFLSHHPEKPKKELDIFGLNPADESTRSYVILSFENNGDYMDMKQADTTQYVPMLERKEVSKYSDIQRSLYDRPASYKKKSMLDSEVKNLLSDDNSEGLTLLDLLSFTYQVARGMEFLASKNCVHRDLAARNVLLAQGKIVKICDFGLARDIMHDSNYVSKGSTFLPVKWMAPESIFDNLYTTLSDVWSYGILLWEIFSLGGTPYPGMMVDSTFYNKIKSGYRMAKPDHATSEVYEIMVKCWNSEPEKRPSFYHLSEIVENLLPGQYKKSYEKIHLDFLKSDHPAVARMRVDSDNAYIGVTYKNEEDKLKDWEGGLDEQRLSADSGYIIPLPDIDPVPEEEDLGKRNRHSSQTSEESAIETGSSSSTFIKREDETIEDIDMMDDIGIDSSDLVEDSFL

Chain of PDGFR-beta (P09619 33-530 limits assumed): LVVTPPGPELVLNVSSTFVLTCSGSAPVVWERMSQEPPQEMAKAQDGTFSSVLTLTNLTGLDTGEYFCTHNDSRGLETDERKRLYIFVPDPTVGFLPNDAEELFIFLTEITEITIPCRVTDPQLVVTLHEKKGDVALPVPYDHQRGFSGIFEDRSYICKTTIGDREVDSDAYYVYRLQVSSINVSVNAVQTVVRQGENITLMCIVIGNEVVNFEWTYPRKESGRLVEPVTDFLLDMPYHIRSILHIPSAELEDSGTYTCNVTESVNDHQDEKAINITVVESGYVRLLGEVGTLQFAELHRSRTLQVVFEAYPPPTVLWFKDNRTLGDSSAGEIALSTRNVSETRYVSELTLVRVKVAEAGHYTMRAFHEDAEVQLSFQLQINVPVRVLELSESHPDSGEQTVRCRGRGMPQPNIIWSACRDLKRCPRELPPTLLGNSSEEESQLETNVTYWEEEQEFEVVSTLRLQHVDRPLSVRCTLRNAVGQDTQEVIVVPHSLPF
T1 sequence (P16234 24-1089): as the sequence (P16234 24-1089) above
Chain of CSF-1R (P07333 20-512 limits assumed): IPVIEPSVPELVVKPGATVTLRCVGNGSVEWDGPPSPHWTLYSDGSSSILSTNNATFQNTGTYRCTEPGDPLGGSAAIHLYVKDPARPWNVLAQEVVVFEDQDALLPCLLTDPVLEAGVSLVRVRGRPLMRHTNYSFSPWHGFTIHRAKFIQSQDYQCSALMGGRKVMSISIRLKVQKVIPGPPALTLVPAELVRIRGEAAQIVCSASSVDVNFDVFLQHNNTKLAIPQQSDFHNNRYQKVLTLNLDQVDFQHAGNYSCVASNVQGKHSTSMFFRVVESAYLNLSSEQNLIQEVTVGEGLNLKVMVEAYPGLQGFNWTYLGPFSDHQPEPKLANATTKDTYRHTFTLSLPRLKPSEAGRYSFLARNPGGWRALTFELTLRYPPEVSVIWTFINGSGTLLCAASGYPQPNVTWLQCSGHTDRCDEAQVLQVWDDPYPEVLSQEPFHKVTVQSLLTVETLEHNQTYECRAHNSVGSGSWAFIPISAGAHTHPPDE
Chain of c-kit (P10721 26-520 limits assumed): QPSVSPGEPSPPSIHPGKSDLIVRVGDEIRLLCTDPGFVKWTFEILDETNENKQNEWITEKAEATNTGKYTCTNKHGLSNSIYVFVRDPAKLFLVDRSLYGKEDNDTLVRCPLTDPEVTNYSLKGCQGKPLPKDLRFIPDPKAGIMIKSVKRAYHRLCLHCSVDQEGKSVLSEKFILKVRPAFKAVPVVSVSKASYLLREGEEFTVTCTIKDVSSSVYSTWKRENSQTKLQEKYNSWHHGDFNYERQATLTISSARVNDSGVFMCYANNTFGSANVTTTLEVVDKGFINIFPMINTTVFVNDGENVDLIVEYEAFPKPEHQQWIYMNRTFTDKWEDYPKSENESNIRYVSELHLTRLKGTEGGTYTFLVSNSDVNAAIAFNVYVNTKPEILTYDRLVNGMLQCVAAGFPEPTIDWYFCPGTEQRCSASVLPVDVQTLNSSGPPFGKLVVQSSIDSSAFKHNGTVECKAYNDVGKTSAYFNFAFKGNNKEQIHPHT
T2 sequence (P26618 25-1089): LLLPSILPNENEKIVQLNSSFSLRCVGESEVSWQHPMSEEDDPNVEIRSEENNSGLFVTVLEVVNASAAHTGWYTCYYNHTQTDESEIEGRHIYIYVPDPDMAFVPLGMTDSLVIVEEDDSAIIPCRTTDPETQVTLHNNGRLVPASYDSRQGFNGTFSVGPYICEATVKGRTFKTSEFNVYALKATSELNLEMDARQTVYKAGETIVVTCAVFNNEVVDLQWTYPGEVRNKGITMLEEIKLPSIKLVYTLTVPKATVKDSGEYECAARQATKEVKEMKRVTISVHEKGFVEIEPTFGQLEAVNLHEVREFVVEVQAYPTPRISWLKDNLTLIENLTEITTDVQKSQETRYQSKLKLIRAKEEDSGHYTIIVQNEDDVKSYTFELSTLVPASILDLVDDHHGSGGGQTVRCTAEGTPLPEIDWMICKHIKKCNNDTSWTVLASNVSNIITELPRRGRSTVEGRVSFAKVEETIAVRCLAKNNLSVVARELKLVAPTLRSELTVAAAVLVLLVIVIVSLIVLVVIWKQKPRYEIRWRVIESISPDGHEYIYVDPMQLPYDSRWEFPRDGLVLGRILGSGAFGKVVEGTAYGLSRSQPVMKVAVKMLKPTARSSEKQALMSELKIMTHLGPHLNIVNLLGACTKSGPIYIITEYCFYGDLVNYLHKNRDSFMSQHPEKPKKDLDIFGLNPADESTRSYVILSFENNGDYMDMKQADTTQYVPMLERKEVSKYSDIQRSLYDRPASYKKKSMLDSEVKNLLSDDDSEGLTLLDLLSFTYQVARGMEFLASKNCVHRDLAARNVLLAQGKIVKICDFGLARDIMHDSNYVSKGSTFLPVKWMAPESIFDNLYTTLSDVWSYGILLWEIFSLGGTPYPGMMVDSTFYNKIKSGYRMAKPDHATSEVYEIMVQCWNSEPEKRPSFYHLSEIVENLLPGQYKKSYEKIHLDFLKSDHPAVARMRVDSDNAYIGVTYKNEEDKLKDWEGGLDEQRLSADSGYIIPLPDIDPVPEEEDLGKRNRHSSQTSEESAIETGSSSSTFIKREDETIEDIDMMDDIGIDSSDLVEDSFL

Binder	Average pTyr Inhibition [1]	PROLIFERATION ASSAY: MG-63 CELLS, IC50 [2]	binding result (c-kit)	binding result (CSF-1R)	binding result (PDGFR-beta)	binding result (FLT3)	further results
2.414.2 (antibody, V domains shown) VH: QLQLQESGPGLVKPSETLSLTCTVSGGSISSSNYYWGWIRQPPGKGLEWIGTIYYTGSTYYNPSLKSRVTISVDTSKNQFSLKLSSVTAADTAVYYCARHHWVFDYWGQGTLVTVSS VL: EIVLTQSPDFLSVTPKEKVTITCRASQIIGSSLHWYQQKPDQSPKLLIKYASQSFSGVPSRFSGSGSGTDFTLTLNSLEAEDAATYYCHQSTILPWTFGQGTKVEIK	98%	2.3 nM	–	–	–	–	–
2.84.3 (antibody, V domains shown, Variable regions only; also called 2.84.1; 2.84.2) VH: QLQLQESGPGLVKPSETLSLTCTVSGGFISSSSYYWGWIRQPPGKGLEWIGTIYYSGTTYYNSSLKSRVTISVDTSQNQFSLKLSSVTAADTAVYYCARHHWVFDYWGQGTLVTVSS VL: EVVLTQSPDFQSVTPKEKITITCRASQIIGTSLHWYQKKPDQSPKLLIKYASQSFSGVPSRFSGSGSGTEFTLTINSLEAEDTATYYCHQSTNLPWTFGQGTKVEIK	–	–	no binding	no binding	no binding	no binding	–
2.542.2 (antibody, V domains shown) VH: QLQLQESGPGLVKPSETLSLTCTVSGGSISSSTYYWGWIRQPPGKGLEWIGTIYYSGSTYYNPSLKSRVTISVDTSKNQFSLKLNSVTAADTAVYYCARHHWVFDYWGQGTLVTVSS VL: EIVLTQSPDFLSVTPKEKVTITCRASQIIGSSLHWYQQKPDQSPNLLIKYASQSVSGVPSRFSGSGSGTDFTLTLNSLEAEDAATYYCHQSTILPWTFGQGTKVEIK	91%	4.35 nM	–	–	–	–	–
2.998.2 (antibody, V domains shown, Variable regions only) VH: QLQLQESGPGLVKPSETLSLTCTVSGDSISSFIYYWGWIRQPPGKGLEWIGTIYYSGSTYYNPSLKSRVTISVDTSKNQFSLKLRSVTAADTAVYYCARHHWVFDYWGQGTQVTVSS VL: DIVLTQFPDFQSVTPKEKVTITCRASQVIGSSLHWYQQKPDQSPKLLIKYASQSFSGVPSRFSGSGSGTDFTLTINSLEVEDAATYYCHQSTILPWTFGQGTKVEVK	–	–	no binding	no binding	no binding	no binding	–
2.351.3 (antibody, V domains shown) VH: QVQLVQSGAEVKKPGASVKVSCKASGYTFIGYYLHWVRQAPGQGLEWMGSINPNSGGTNYAQKFQGRVTMIRDTSINTAYMELSRLRSDDTAVYYCARDKRITMVRGVHYLYYGWDVWGQGTTVTVSS VL: DIQMTQSPSSLSASVGDRVTITCRASQVISNYLAWYQQKPGKVPQLLIYAASTLQSGVPSRFSGSGSGTDFTLTISSLQPEDVATYYCQNYKSAPWTFGQGTKVEIK	97%	4.3 nM	–	–	–	–	–
2.2002.3 (antibody, V domains shown, Variable regions only) VH: QVQLVESGGGVVQPGRSLRVSCAASGFMFRSYGMHWVRQAPGKGLEWVAVIWHDGSNKNHGDSVKGRFTISRDNSKNTLYLQMNSLRAEDTAVYYCARGRLAGGGPYYYYYYGMDVWGQGTTVTVSS VL: not shown	–	–	no binding	no binding	no binding	no binding	–
3.341.2 (antibody, V domains shown) VH: EVQLVESGGGLVQPGGSLRLSCAASGFTFSSYSMNWVRQAPGKGLEWVSFISGSSSTMYYADSVKGRFTISRDNAKNSLYLQMNSLRDEDTAVYYCARLRYFDWSYAFDIWGQGTMVTVSS VL: DIQMTQSPSSVSTSVGDRVTITCRASQGIRSWLAWYQQRPGKAPKLLIYAASSLQNGVPSRFSGSGSGTDFTLTISSLQPEDFATYFCQQATSFPFTFGPGTKVDIN	> 100%	3.1 nM	–	–	–	–	–
3.341.1 (antibody, V domains shown, Variable regions only; the assays name clone 3.341.2; also called 3.341.2) VH: EVQLVESGGGLVQPGGSLRLSCAASGFTFSSYSMNWVRQAPGKGLEWVSFISGSSSTMYYADSVKGRFTISRDNAKNSLYLQMNSLRDEDTAVYYCARLRYFDWSYAFDIWGQGTMVTVSS VL: DIQMTQSPSSVSTSVGDRVTITCRASQGIRSWLAWYQQRPGKAPKLLIYAASSLQNGVPSRFSGSGSGTDFTLTISSLQPEDFATYFCQQATSFPFTFGPGTKVDIN	–	–	no binding	no binding	no binding	no binding	–
3.818.4 (antibody, V domains shown, Variable regions only) VH: EVQLVESGGGLVQPGGSLRLSCAASGFTFSSYSMNWVRQAPGKGLEWVSYISGSSTTMYYADSVKGRFTISRDNAKNSLYLQMNSLRDEDTAVYYCARLRHFDWSYAFDIWGQGTMVTVSS VL: DIQMTQSPSSVSTSVGDRVTITCRASQGISSWLAWYQQRPGKAPKLLIYAASSLQSGVPSRFSGSGSGTDFTLTISSLQPEDFATYFCQQATSFPFTFGPGTKVGIK	–	–	no binding	no binding	no binding	no binding	–
2.796.2 (antibody, V domains shown) VH: QVQLVESGGGLVKPGGSLRLSCAASGFTFSDYYMNWIRQAPGKGLEWVSYISSSGSIIYYADSVKGRFTISRDNAKNSLYLQMNSLRAEDTAVYYCARDGHIAARGMDVWGQGTTVTVSS VL: DIQMTQSPSSLSASVGDRVTITCRASQSFSRYINWYQQKPGKAPKLLIYAASSLQGGVPSRFSGSGSGTDFTLTISSLQPEDFATYYCQQTYSNPPITFGQGTRLEIK [2.796.2, listing 1 of 2 here]	–	–	–	–	–	–	binding result [3]: no binding (tested: 10 ug/ml); Proliferation Assay: IC50 ng/ml (1-6-06) [4]: 498 ng/mL; Proliferation Assay: IC50 ng/ml (1-23-06) [4]: 757 ng/mL; pTyr Assay: % Inhibition @ 2 µg/ml [4]: 99%
2.1853.3 (antibody, V domains shown) VH: QVQLVESGGGLVKPGGSLRLSCAASGFTFSDYYMNWIRQAPGKGLEWVSYISSSGSIIYYADSVKGRFTISRDNAKNSLYLQMNSLRAEDTAVYYCARDGRIVARGMDVWGQGTTVTVSS VL: DIQMTQSPSSLCASVGDRVTITCRASRSITRYLNWYQQKPGKAPKLLIYGASSLQSGVPSRFSGSGSGTDFTLTISSLQPEDFATYYCQQSYSTPPITFGQGTRLEIK	> 100%	18 nM	–	–	–	–	–
2.1623.2 (antibody, V domains shown) VH: QVQLVESGGGLVKPGGSLRLSCAASGFTFSDYYMNWIRQAPGKGLEWVSFISSSGSTIYYADSVKGRFTISRDNAKNSLYLQMNSLRAEDTAVYYCARDGHIAARGMDVWGQGTTVTVSS VL: DIQMTQSPSSLSASVGDRVTITCRASQSFSRYINWYQQKPGKAPKLLIYAASSLQGGVPSRFSGSGSGTDFTLAISSLQPEDFATYYCQQTYSTPPITFGQGTRLEIK	> 100%	6.5 nM	–	–	–	–	–
2.796.2 (antibody, V domains shown) VH: QVQLVESGGGLVKPGGSLRLSCAASGFTFSDYYMNWIRQAPGKGLEWVSYISSSGSIIYYADSVKGRFTISRDNAKNSLYLQMNSLRAEDTAVYYCARDGHIAARGMDVWGQGTTVTVSS VL: DIQMTQSPSSLSASVGDRVTITCRASQSFSRYINWYQQKPGKAPKLLIYAASSLQGGVPSRFSGSGSGTDFTLTISSLQPEDFATYYCQQTYSNPPITFGQGTRLEIK [2.796.2, listing 2 of 2 here]	93%	5 nM	–	–	–	–	–
2.737.1.4 (antibody, V domains shown) VH: QVQLVESGGGLVKPGGSLRLSCAASGFTFRDYYMSWIRQAPGKGLEWVAFISSSGSIIYYADSVKGRFTISRDNAKNSLFLQMNSLRAEDTAVYYCARDGHIAARGMDVWGQGTTVTVSS VL: DIQMTQSPSSLSASVGDRVTITCRASQSINKYINWYQQKPGKAPKLLIYAASSLQSGVPSRFNGSGSGTDFTFTINTLQPEDFATYYCQQTYSTPPITFGQGTRLEIK	93%	3.72 nM	–	–	–	–	–
2.2071.1.3 (antibody, V domains shown) VH: QVQLVESGGGLVKPGGSLRLSCAASGFTFSDYYMNWIRQAPGKGLEWVSYISSSGSIIYYADSVKGRFTISRDNAKNSLYLQMNSLRAEDTAVYYCARDGRIVARGMDVWGQGTTVTVSS VL: DIQMTQSPSSLSASVGDRVTLTCRASHSINRYINWYQQKPGKAPKLLIYAASSLQSGVPSRFSGNGSGTDFTLTISSLQPEDFATYYCQQSYSTPPITFGQGTRLEIT [2.2071.1.3, listing 1 of 2 here]	> 100%	3.3 nM	–	–	–	–	–
2.2071.1.3 (antibody, V domains shown) VH: QVQLVESGGGLVKPGGSLRLSCAASGFTFSDYYMNWIRQAPGKGLEWVSYISSSGSIIYYADSVKGRFTISRDNAKNSLYLQMNSLRAEDTAVYYCARDGRIVARGMDVWGQGTTVTVSS VL: DIQMTQSPSSLSASVGDRVTLTCRASHSINRYINWYQQKPGKAPKLLIYAASSLQSGVPSRFSGNGSGTDFTLTISSLQPEDFATYYCQQSYSTPPITFGQGTRLEIT [2.2071.1.3, listing 2 of 2 here]	–	–	–	–	–	–	binding result [3]: no binding (tested: 10 ug/ml); Proliferation Assay: IC50 ng/ml (1-6-06) [4]: 1280 ng/mL; Proliferation Assay: IC50 ng/ml (1-23-06) [4]: 492 ng/mL; Proliferation Assay: IC50 (1-6-06) [4]: 8.5 nM; Proliferation Assay: IC50 (1-23-06) [4]: 3.3 nM; pTyr Assay: % Inhibition @ 2 µg/ml [4]: 99%
5.16.1 (antibody, V domains shown) VH: QVQLVQSGAEVKKPGASVKVSCKASGYTFTSYYMYWVRQAPGQGLEWMGIINPSGGSTSYAQKFQGRVTMTRDTSTSTVYMELSSLRSEDTAVYYCARGSSPFFDYWGQGTLVTVSS VL: DIQMTQSPSSLSASVGDRVTITCRASQIISHFLNWYQQKPGKAPKLLVYVASSLQSGVPSRFSGSGSGTDFTLTISSLQPEDFATYYCQQSFSIPLTFGGGTKVEIK	–	2.8 nM	–	–	–	–	–
2.1954.2 (antibody, V domains shown, Variable regions only) VH: QVQLVESGGGVVQPGRSLRLSCAASGFSFSIYGMHWVRQAPGKGLEWVAVIWFDGSNKYYADSVKGRFTISRDNSKNTLYLQMNSLRAEDTALYYCARDKASYYGSGMDYWGQGTLVTVSS VL: EIVLTQSPGTLSLSPGERATLSCRASQSVSSTYLAWYQHRPGQAPRLLISGASRRATGIPDRFSGSGSGTDFTLTISRLEPEDFAVYYCQHYGSSFTWTFGQGTKVEIK	–	–	no binding	no binding	no binding	no binding	–
